Where two headings read alike, the source gives them in different places.

The values below come from paper PMC2383916.

Assay [1] concerns the target GAL4-CRY1 (mouse) (UniProt P97784). The assay can be described thus: two-hybrid; mammalian two-hybrid in cos-7 cells: Gal4 DBD fusion and VP16 fusion co-transfected with pFR-luc and pCMV-lacZ; reporter alone set to 1.
Assay [2] deals with GAL4-CRY2 (mouse) (UniProt Q9R194). The description is as above.
For assay [3], the target named is GAL4-PER2 (mouse) (UniProt O54943). The assay is described as above.
The target in assay [4] is GAL4-CRY1 (mouse) (UniProt P97784). The assay can be described thus: two-hybrid; mammalian two-hybrid in HER911 cells: Gal4 DBD fusion and VP16 fusion co-transfected with the GAL4-based luciferase reporter pFR-luc and pCMV-lacZ; luciferase normalised to beta-galactosidase; reporter alone set to 1. (In general: A reporter such as luciferase makes a cellular process visible.)

The target in assay [5] is GAL4-CRY2 (mouse) (UniProt Q9R194). Described as above.
Assay [6] concerns the target GAL4-PER2 (mouse) (UniProt O54943). Described as above.
Assay [7] addresses GAL4-BMAL1 (mouse). Briefly: two-hybrid; mammalian two-hybrid in cos-7 cells: Gal4 DBD fusion and VP16 fusion co-transfected with pFR-luc and pCMV-lacZ; reporter alone set to 1.
The target of assay [8] is GAL4-BMAL1 (mouse). The assay can be described thus: two-hybrid; mammalian two-hybrid in HER911 cells: Gal4 DBD fusion and VP16 fusion co-transfected with the GAL4-based luciferase reporter pFR-luc and pCMV-lacZ; luciferase normalised to beta-galactosidase; reporter alone set to 1.
Assay [9] addresses GAL4-BMAL1ΔC-term (mouse). The description is as above.
Assay [10] has as its target GAL4-BMAL1ΔPAS B/C-term (mouse). The assay is described as above.
In assay [11] the target is GAL4-CLOCK (mouse) (UniProt O08785). The description is as above.
The target of assay [12] is GAL4-BMAL1 (mouse). The assay is described as above. The source holds these as a separate data set.
The target of assay [13] is GAL4-BMAL1ΔC-term (mouse). The description is as above. This is another data set of the same source.
In assay [14] the target is GAL4-BMAL1ΔHLH/PAS A (mouse). The description is as above.

Sequence of UniProt O54943 (O54943 whole entry, the tested form may be a part): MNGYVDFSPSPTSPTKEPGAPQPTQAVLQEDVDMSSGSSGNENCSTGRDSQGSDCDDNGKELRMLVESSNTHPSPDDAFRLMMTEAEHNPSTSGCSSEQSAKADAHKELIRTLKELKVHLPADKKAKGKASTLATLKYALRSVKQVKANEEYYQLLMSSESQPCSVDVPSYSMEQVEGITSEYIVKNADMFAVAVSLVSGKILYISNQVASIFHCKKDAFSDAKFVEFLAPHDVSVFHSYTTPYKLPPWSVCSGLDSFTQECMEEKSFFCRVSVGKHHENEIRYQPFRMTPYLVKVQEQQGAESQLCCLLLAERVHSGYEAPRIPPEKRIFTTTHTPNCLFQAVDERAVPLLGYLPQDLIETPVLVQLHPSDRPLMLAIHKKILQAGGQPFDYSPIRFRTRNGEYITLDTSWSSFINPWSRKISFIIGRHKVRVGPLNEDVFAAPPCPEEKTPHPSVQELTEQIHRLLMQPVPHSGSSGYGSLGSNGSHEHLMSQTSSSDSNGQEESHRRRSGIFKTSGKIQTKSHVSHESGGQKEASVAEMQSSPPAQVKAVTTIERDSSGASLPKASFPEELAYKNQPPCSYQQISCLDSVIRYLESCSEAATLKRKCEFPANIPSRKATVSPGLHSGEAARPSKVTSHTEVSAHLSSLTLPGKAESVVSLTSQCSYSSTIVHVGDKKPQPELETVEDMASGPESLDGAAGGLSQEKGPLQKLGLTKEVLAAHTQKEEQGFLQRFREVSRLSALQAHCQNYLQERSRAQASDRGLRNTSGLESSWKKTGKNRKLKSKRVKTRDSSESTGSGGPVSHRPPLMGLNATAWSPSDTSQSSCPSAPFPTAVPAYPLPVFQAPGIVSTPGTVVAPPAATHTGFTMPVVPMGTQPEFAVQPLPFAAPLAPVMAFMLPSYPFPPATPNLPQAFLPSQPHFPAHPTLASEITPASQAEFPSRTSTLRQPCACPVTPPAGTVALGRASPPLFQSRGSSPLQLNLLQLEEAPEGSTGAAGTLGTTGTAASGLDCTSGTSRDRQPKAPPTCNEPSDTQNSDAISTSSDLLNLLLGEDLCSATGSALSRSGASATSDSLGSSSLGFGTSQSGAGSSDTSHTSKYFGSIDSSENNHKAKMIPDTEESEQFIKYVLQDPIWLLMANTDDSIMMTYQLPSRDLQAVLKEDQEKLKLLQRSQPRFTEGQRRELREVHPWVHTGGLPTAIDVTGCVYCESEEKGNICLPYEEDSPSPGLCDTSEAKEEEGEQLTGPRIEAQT
Sequence of UniProt O08785 (O08785 whole entry, the tested form may be a part): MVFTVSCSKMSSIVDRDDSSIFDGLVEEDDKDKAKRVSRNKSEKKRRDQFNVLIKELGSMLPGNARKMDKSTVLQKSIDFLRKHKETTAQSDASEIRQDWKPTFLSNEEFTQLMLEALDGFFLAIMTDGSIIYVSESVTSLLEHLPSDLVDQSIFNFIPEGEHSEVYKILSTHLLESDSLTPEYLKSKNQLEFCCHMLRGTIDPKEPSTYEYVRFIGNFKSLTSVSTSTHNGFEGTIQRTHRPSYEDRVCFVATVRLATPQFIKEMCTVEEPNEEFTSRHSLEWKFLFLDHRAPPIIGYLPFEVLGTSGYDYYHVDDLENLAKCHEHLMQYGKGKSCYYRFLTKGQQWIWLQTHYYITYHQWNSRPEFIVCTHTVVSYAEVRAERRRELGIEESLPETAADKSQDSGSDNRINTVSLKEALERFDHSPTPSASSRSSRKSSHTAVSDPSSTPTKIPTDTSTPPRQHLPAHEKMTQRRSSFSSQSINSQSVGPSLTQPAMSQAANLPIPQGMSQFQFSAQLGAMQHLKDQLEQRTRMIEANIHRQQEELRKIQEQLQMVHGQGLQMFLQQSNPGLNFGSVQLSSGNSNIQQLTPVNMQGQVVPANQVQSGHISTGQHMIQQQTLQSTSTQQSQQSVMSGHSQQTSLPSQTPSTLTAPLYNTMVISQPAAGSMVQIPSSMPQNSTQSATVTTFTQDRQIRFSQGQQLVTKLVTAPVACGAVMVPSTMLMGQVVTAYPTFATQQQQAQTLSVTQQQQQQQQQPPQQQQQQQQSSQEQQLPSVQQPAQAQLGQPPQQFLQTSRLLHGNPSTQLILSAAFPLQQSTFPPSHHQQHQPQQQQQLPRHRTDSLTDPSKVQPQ

BMAL1-VP16 (natural protein): the fold luciferase activity over reporter alone in [1] amounted to 450 fold; in assay [2], 125 fold; in [3] it was 2900 fold; in assay [4], 70 fold; in assay [5] it was 10 fold; in assay [6], 110 fold.
Regarding “CLOCK-VP16 (from UniProt O08785 1-855) (natural protein)”, the fold luciferase activity over reporter alone in [3] turned out to be 55 fold; in assay [6], 110 fold.
Regarding “PER2-VP16 (from UniProt O54943 1-1257) (natural protein)”, the fold luciferase activity over reporter alone in assay [7] amounted to 200 fold; in [8], 1000 fold; in [9], 150 fold; in assay [10], 5 fold; in assay [11] it was 75 fold.

B1: CRY1-VP16 (natural protein)
chain: MGVNAVHWFRKGLRLHDNPALKECIQGADTIRCVYILDPWFAGSSNVGINRWRFLLQCLEDLDANLRKLNSRLFVIRGQPADVFPRLFKEWNITKLSIEYDSEPFGKERDAAIKKLATEAGVEVIVRISHTLYDLDKIIELNGGQPPLTYKRFQTLVSKMEPLEMPADTITSDVIGKCMTPLSDDHDEKYGVPSLEELGFDTDGLSSAVWPGGETEALTRLERHLERKAWVANFERPRMNANSLLASPTGLSPYLRFGCLSCRLFYFKLTDLYKKVKKNSSPPLSLYGQLLWREFFYTAATNNPRFDKMEGNPICVQIPWDKNPEALAKWAEGRTGFPWIDAIMTQLRQEGWIHHLARHAVACFLTRGDLWISWEEGMKVFEELLLDADWSINAGSWMWLSCSSFFQQFFHCYCPVGFGRRTDPNGDYIRRYLPVLRGFPAKYIYDPWNAPEGIQKVAKCLIGVNYPKPMVNHAEASRLNIERMKQIYQQLSRYRGLGLLASVPSNSNGNGGLMGYAPGENVPSCSSSGNGGLMGYAPGENVPSCSGGNCSQGSGILHYAHGDSQQTHSLKQGRSSAGTGLSSGKRPSQEEDAQSVGPKVQRQSSN
Regarding B1, the fold luciferase activity over reporter alone stood at 110 fold in [7], 750 fold in assay [12] and 50 fold in assay [13].

B2: CRY2-VP16 (natural protein)
chain: MAAAAVVAATVPAQSMGADGASSVHWFRKGLRLHDNPALLAAVRGARCVRCVYILDPWFAASSSVGINRWRFLLQSLEDLDTSLRKLNSRLFVVRGQPADVFPRLFKEWGVTRLTFEYDSEPFGKERDAAIMKMAKEAGVEVVTENSHTLYDLDRIIELNGQKPPLTYKRFQALISRMELPKKPAVAVSSQQMESCRAEIQENHDDTYGVPSLEELGFPTEGLGPAVWQGGETEALARLDKHLERKAWVANYERPRMNANSLLASPTGLSPYLRFGCLSCRLFYYRLWDLYKKVKRNSTPPLSLFGQLLWREFFYTAATNNPRFDRMEGNPICIQIPWDRNPEALAKWAEGKTGFPWIDAIMTQLRQEGWIHHLARHAVACFLTRGDLWVSWESGVRVFDELLLDADFSVNAGSWMWLSCSAFFQQFFHCYCPVGFGRRTDPSGDYIRRYLPKLKGFPSRYIYEPWNAPESVQKAAKCIIGVDYPRPIVNHAETSRLNIERMKQIYQQLSRYRGLCLLASVPSCVEDLSHPVAEPGSSQAGSISNTGPRALSSGPASPKRKLEAAEEPPGEELTKRARVTEMPTQEPASKDS
As to B2, the fold luciferase activity over reporter alone is 70 fold in assay [7] and 950 fold in assay [12]. In addition, the fold luciferase activity over Gal4-Bmal1ΔHLH/PAS A alone in assay [14] came to 3 fold.
